Experimental data published in PMC5087487, “A Graphene Oxide-Based Fluorescent Method for the Detection of Human Chorionic Gonadotropin” (Sensors (Basel, Switzerland), 2016).
Ends that are not written are not given here. * marks the point of attachment. FITC = O=C1OC2(c3ccc(O)cc3Oc3cc(O)ccc32)c2ccc(NC(=S)*)cc21

Target: T1, Human chorionic gonadotropin (human, UniProt P01215 25-116; P0DN86 21-165)
T1 construct: glycoprotein hormones alpha chain of human chorionic gonadotropin; beta subunit of human chorionic gonadotropin; Glycoprotein hormone; also called hCG; source: bought: Sigma-Aldrich
Assay: other fluorescence titration; 50 nM FITC-peptide first adsorbed on graphene oxide (2 ug/mL, 10 min, fluorescence quenched); protein added, 15 min at room temperature, PBS 20 mM pH 7.2; recovery of fluorescence (excitation 470 nm, emission 518 nm) on release of the peptide from GO
Conditions: both partners purified

T1 sequence (P01215 25-116, chain 1 of 2, other chains not shown): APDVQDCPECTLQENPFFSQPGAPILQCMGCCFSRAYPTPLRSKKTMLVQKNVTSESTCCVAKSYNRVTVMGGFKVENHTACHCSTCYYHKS

binding result: binds
B1: FITC-labeled hCG-specific binding peptide aptamer FITC-PPLRINRHILTR (peptide)
peptide: {FITC}-PPLRINRHILTR
notes: In the assay the peptide was first adsorbed onto graphene oxide (GO); also called peptide probe; source: synthetic peptide; bought: Synpeptide Co., Ltd
